The data set deals with the molecule itself. The data set can be described thus: SEC; 50 μL of 1 mg/mL purified APC on Superdex200 HR/30, 5 mM phosphate buffer pH7, 0.5 ml/min, calibrated with BioRad standards, elution followed at 651 and 280 nm.

B1: Allophycocyanin αβ heterodimer from Gracilaria chilensis (complex)
chain 1: MSIITKSIVNADAEARYLSPGELDRIKSFVLSGQRRLRIAQILTDNRELIVKQGGQQLFQKRPDVVSPGGNAYGEEMTATCLRDLDYYLRLVTYGIVAGDVTPIEEIGLVGVKEMYNSLGTPISGVAEGVRSMKNVACSLLAGEDSAEAGFYFDYTLGAMQ
chain 2: MQDAITSVINAADVQGRYLDDNSLDKLRGYFQTGELRVRASATIAANAATIIKDSVAKALLYSDITRPGGNMYTTRRYAACIRDLDYYLRYATYGMLAGDPSILDERVLNGLKETYNSLGVPIGATIQAVQAMKEVTSSLVGPDAGKEMGVYFDYICSGLS
modifications: phycocyanobilin bound to cysteine 81 | phycocyanobilin bound to cysteine 81; methyl-Asn71 (Asm71)
notes: Allophycocyanin α subunit (gene apcA), Gracilaria chilensis; 161 residues; as the chain of m1; Allophycocyanin β subunit (gene apcB), Gracilaria chilensis; as the chain of m2; The αβ heterodimer is the unit that associates with itself into the trimer (αβ)3; also called APC; heterodimer αβ; source: purified from Gracilaria chilensis (method in S4 File)
B1: the “stoichiometry N” value stood at 3.

The stoichiometry N is a count of units in the complex or per binding partner.
